The record followed here is article doi:10.1101/813527.

Where only a bound is given, the exact number is not on record here.

In series [1] the target is GFP-S14D S26D-SAP (phosphomimetic SAF-A SAP domain) (UniProt Q00839). Kind of series: EMSA. (A gel shift assay detects complexes by their altered migration in electrophoresis.)
Series [2] deals with GFP-WT-SAP (SAF-A SAP domain) (UniProt Q00839). Kind of series: EMSA.

Usually Kd stands for the equilibrium constant for the complex coming apart. A high value points to weaker binding. On to “AATTCAGAAAATAATAAAATAAAACTAGCTATTTTATATTTTTTC (double strand) [AT-rich SAR DNA]”, for which the Kd in series [1] was above 75 µM; in series [2] it was 16.5 µM.
